The values that follow come from PMC8696033.

Experiment [1] addresses WT murine C3b (mouse). The experiment in a line: SPR; WT murine C3b amine coupled on a CM5 chip; 2-fold dilution series of the FH protein flowed over in duplicate, 30 µl/min; HBST (10 mM HEPES, 150 mM NaCl, 0.005% Tween 20, pH 7.4); steady-state model. For orientation: Surface plasmon resonance follows binding to a sensor surface in real time, without labels.
Experiment [2] concerns the target mouse homodimeric minimal factor H (mHDM-FH, mFH^1–5^18–20^R1–2) (mouse) (UniProt P06909). Description: SEC; analytical size exclusion gel filtration; elution volume compared with mFLFH and mini-mFH. On the technique in general: In gel filtration, larger molecules generally elute earlier.
Experiment [3] has as its target WT murine C3b (mouse).

As a reminder, the Kd is the constant that tells how readily two partners part at equilibrium. A high value points to a looser complex. Substance “Mouse full length Factor H (mFLFH) (from UniProt P06909 19-1234) (natural protein)” displayed a Kd in experiment [1] of 1700 nM.

By stoichiometry N is commonly meant a count of units in the complex or per binding partner. Take “mouse homodimeric minimal factor H (mHDM-FH, mFH^1–5^18–20^R1–2) (from UniProt P06909 19-321; P06909 1050-1234; Q61406 24-152)”: the stoichiometry N in experiment [2] was 2. Also, the IC50 of protection of sheep erythrocytes from lysis by mouse serum (haemolysis assay) in experiment [3] came out at 8 nM. The substance further had a Kd in experiment [1] of 500 nM.
